Reference: the DeepSol protein solubility set

Test: soluble on expression in E. coli; label from the status in PepcDB or PDB records

Row | Sequence | soluble on expression in E. coli
1 | MTDEQRSGSRRRGGALGGGRGGNSQNSGRKRSSNSPADSASSSQKTSRNPSQNRPPMNIVPQKVTILKRNQDSQPTSPINRNAPPGPLVAAVQPLMAVELGDSGASLKGWNSNPTTPEKTTINVAGRQAEANKKQTQEYYFSKNAGSAVSAQTFQETVQYPMSSFPLEKNVPIQIDNNFTLLITPTTSKCNGLFIKVKLQHGDDNITTGALLKLDADEKTIRKSCRETIENLLKAKSSSDRFPFSKCSEGFLTSCLIKKLVDRLEAFPEAIYYCEKCDYHINTIGHAKAHLESSTHFDDVKRQEQREHLLKIIPPPTEAHLESVEKVLEGTLKSYQQVRQNGIEIGETIIYYLSTTVFPSIGLQDVILRPFGSVTYDVTLPDSDYNVAYTMSIPEGTPIFALLEQVRKKIADDGHPADHSMEMGTPSTIIFTFKGVRVKLCWMSCFNHRIQLHFSELMKTYVNLREEVAQFLQLIRLWATKAGLDSKNKPRIGLPRYGFDIMAIHFLQQIGCLPVLHELFEAGPETEKIEEMSAEKTAKLQSEEAGQRRMRLMSRYEKNTEKIGTKFDLKKSWNLAELFIGFFRYYVERHRDVVIQITQLIPMSRDVSRWNKKILHVVDPFRGDNVLSIPKVSTWQPFFFNCLLTSFVSFSIPRTKNGPLIEVSFVHNKTIKPGKKFKDTPKKATVEAPIPLTQIMEEHYQEPVYEIVNDKDHLKYMKELKERLMIDGILVNERKPIDYHTDDHRECVYGRNSLLRFKRVLKPGLNGKMAASMDGLSFVTKKGKKFINRWKKANVIILSEDSSEIDEKTKAADSNVSEIAEKLEETLKISSQKNIDVAVTSMPVSTEIKPEPITKLSNEAPVKIKNVAQPQCDLIEAPQESLMNESMMESSFDETESPMKTPIVQKPVKQNATFGKSTISTVIPDKQFCSEEFFIKLNSNLKDIVSKSKSLKPSDFHYEFSTDLFCGDFEMEMKCTHCDGSHCVENCPMMEIPPIKKYQARTPEDLKDIDDMIDKYYHENILDERRLKMLDHKIDELQSFLRKNYREDVTLTTFGSVMTGLSVNCSDIDICLRFGDGDVPPKDLTAKEVIQKTESVLRKCHLVKRVQAIVTAKVPIVKFQVKLSNGAIIDVDISYYNILAIYNTALLKEYSLWTPDKRFAKLALFVKTWAKNCEIGDASRGSLSSYCHVIMLISYLQNCDPPVLPRLQEDFRSDNRERRLVDNWDTSFAQVETSLLQRWPKNKESCAQLLIGYFDYYSRFDFRNFVVQCRREMILSKMEKEWPRPLCVEDPFDLSHNLSSGVNKKMFVFIMKVFINSRAVFMSEKPPMNRDHTFLSSYQHQLLRKCNQGSAPTDRQCHQCHRIGHFVESCPQRALAKEARKRFGSNSTNSSYRSNDSGRGFKNGEEGGDRLTYHKRTYYHRSYNK | not soluble
2 | MSLARPDELMFAPLGGVGEIGMNLSIYGLGNRHQRSWLAVDLGVSFGDEEHLPGIDLIMPDVRFLEKERKNLVGLVLTHAHEDHFGAIIELWPRLKCPIYATKFSAALFEAKCAAERNPPDIPVTVVPSGDRIDLGPFGVEFVPVAHSIPESHALAIHTAAGIVVHTGDWKIDPTPIVGPPTDERRLRELGDEGVLALIGDSTNAVRDGRSPSETEVAKTIAELVKAARGRVAVTTFASNVGRLRAVADAARAAGREVVVVGRAMERVVQVARETGHLDGMQELRSADVYGHLPSDKVLALCTGSQGEPRAALARIAKDDHPQVTLNRGDTVIFSSRTIPGNERAVGAIINGLVTQGIKVITDRTELVHVSGHPRRDELRDMIAWVRPQLLIPVHGEALHLSEHAQLARAAGVPKVLICKNGDLVRLGPEGHHHHHH | soluble
3 | MGSDKIHHHHHHMIQMFINLLETIPSLGRHSFQVAFLSAQIAEKMNLDPNVSFLSGLIHDLGLILPYEGKTLLDEIDDTFVIVRDTPGKPLHLHSILGSFITDYVEKLKPISPIVLKHHFPASYLDKTEENLISNIVFISDQVSRYTMINLDVSPRDILIALEDMKSFFFPEVFEACREVLNTEFVQWQLENILAGYDVTDLLDHHVRNCPDCDKKDLIQIGKIVSFIVDTKSEFTTSHTWRVAVFSEKMAEKAGRNSEDLFIAGLYHDIGKISVSYKILEKPAKLSDEEYAIMKKHVYFSYLILLPYKDENWFLPAVRHHERLDGYGYPFRLKGEEMTLEDKIIQVADVFSALLEERPYRPANTVEKALSMVREEVKKKKLSQEAFELLESSLEDFDLSSIEVGREIRKEIRTFVNRVVEKFGDYVL | not soluble
4 | MAEIYEEGDESVDVNKESEVKTELGKGGGDENVLQFLDSLDGYLTLMDSVNSKLREGWFDLASARHSMGTLRINSTLLDLKYHPASSTLQVTDQDVESLGSVPHFALSKWASKGGSRKGKDFSTDTDSEIGSPLSPQLRHRGVSEEKPSAKDETVLAADEEIKKERAKSLSVFGGLVSPKLRGAQQSFETALETLVEIANMRASMISAFERITEK | soluble
5 | MSEPFSVPVTVRGYETDTQGHLNQSVYLNYAEHARWSLLQAAGIRQADLVARGVGPVALETTIRFQRELLAGDEVTVTCAFEWGTGKTFRIRQLVTKADGTVAAEIEAVGGLMDLGERRLVPDPRQRFKELAARPELFGLLEHHHHHH | not soluble
6 | MTKYRLSEEPRAFTYQVDGEKKSVLLRQVIAVTDFNDVKAGTSGGWVDAGNVLSQQGDCWIYDENAMAFAGTEITGNARITQPCSLYNNVRIGDNVWIDRSDISDGARISDNVTIQSSSVRGECAIYGDARVLNQSEILAVQGLTHEHAQILQIYDRATVNHSRIVHQVQLYGDATITLAFIEHRAEVFDFALIEGNKDNNVWICDCAKVYGHARVIAGTEEDAIPTLRYSSQVAEHALIEGNCVLKHHVLVGGHAEIRGGPILLDDRVLIEGQACIQGEILIEHQVEISGRATVIAFDGNTIHLRGPKVINGEDRITRTPLVGSLLEHHHHHH | soluble
7 | MDKFKSMTELKELTKEGKDWEIECENRSSIVTILALHGGGIEPATTELAYTIAHCGDYNYFSFKGMRSKGNNELHVTSTHYDDQIALDLVRGSQRTVAIHGCEGNESVAYIGGSDDRLIELITESLEDIGISVREAPHHISGTQENNIVNMTQTQGGVQLELTAQLRKELFKNRKSSLEHHHHHH | not soluble
8 | MSTVLGTFKRMNEGWTQWPSYGHAFGVRLHKLRRLRGLTQDGLAEIANLSRNQISNLERNENSATKSSDPTMSTIYRLARALHVPPAALMPAVGDYVTDICQDTGHELPIDIAWPTSSQDTQKFSIQYRYRYWDEQSPLFDDEDWDDDHADDPDFGIAVMPETSDNNDADTTKGGDDTEDRGDVDKRDDDPLA | not soluble
9 | MGSDKIHHHHHHMEVKELERDKNRVVLEYVFGAEEIAQAEDKAVRYLNQRVEIPGFRKGRIPKNVLKMKLGEEFQEYTLDFLMDLIPDTLKDRKLILSPIVTERELKDVTARVVVEVHEEPEVRIGDISKIEVEKVDEEKVLEKYVERRIEDLRESHALLEPKEGPAEAGDLVRVNMEVYNEEGKKLTSREYEYVISEDEDRPFVKDLVGKKKGDVVEIEREYEGKKYTYKLEVEEVYKRTLPEIGDELAKSVNNEFETLEQLKESLKKEGKEIYDVEMKESMREQLLEKLPEIVEIEISDRTLEILVNEAINRLKREGRYEQIVSSYESEEKFREELKERILDDIKRDRVIEVLAQEKGISVNDEELEKEAEELAPFWGISPDRAKSLVKARQDLREELRWAILKRKVLDLLLQEVKVKVVEPKGEGDDSEGKEDN | not soluble
10 | MQLQKLVNMFGGDLTRRYGQKVHKLTLHGGFSCPNRDGTIGRGGCTFCNVASFADEAHEHRSIAEQLAHQANLVNRAKRYLAYFQAYTSTFAEVQVLRSMYQQAVSQANIVGLCVGTRPDCVPDAVLDLLCEYKDQGYEVWLELGLQTAHDKTLHRINRGHDFACYQRTTQLARQRGLKVCSHLIVGLPGEGQAECLQTLERVVETGVDGIKLHPLHIVKGSIMAKAWEAGRLNGIELEDYTLTAGEMIRHTPPEVIYHRISASARRPTLLAPLWCENRWTGMVELDRYLNEHGVQGSALGRPWLPPTELEHHHHHH | not soluble
11 | MPTVRVKEGENPEYALRRFKRSCEKAGILTELRRREFYEKPTAERKRKQAAAVKRHLKKISRDVSSRRGVGHRRKKSTTLEHHHHHH | not soluble
12 | MGSDKIHHHHHHMLVENSHTPDALAEAFATVDGLMATGKFARSLSVMLPFVQTGELDAGLLDRTADCFFEMRDYENAVNVMRHVTATWPDDPSAWGKLGLMLQTKGDLLGAEQAFEEVLKRDPNSIPALTALNGIETFSVDSLYAQRLMSLSEREDLDAKHRALIHYALAQIAHGSGEAEVAFTLFQSARNEVAGPFAPAIFDEMVAEQEALFEPRPASEDASLLPKLVFIGGMPMSGTGLVDRILAQHPGVFSVGAKTALSRTHGAIRMHLAKTDRPCNYWDWMEHLSAEEIDIFRQYYLERALGGQVAGGKTIVDAHPLGCLEFGLAQFLFPEAKFVFMSRHPMDTALANIASNVLNGNALASRTEWIAQVMRTVYSSATVYASKLGDSMRLQSYEALVQNSEREIGLLLEHAGLEYNAACLTPNALCDVPQIATMLGQEELSTETQNQWLPYEEQLQGFYEQLGGERWVSAWEDFDKTLR | not soluble
13 | MGSDKIHHHHHHMTKHNKAYKFRLYPTGDQAHLMRKTFGCVRFVYNRMLAERKEAYEKHKDDKEQLKKQKLPTPAKYKAEFEWLKEVDSLALANAQLNLQTAYKNFFRGQNDFPTFKSKKDRKSYTTNVVNGNIMLLNGHIKLPKLKMVRIKQHREIPQDHVIKSCTISMTPTGKYYVSILTEYEKEIVQNEVETVVGLDFAMDRLYVSSEDERANYPKFYREMLDRLAKAQRVLSRRTKGSIRWNKQRIRVAKLHEKVANQRKNFLHHKSKELATHFDVVAIEDLNMKGMSQALHFGKSVADNAWGMFTSFLAYKLHEQGKQLMKIDKWFPSTKTCSSCGNVKNMSLSERVYSCICGVNLDRDYNAAINIKNEAIRLLALA | not soluble
14 | MSSAAADESDAVLENLIAKEILPQTGNWEGTEEFLNRIVQVLLKYIKDQNDRDQKILEFHHPDKMQMLMDLSIPEKPESLLKLVKSCEDVLRLGVRTGHPRFFNQISCGLDLVSMAGEWLTATANTNMFTYEIAPVFILMEKSVMARMWEAVGWDPEKADGIFAPGGAIANLYAMNAARHQLWPRSKHLGMKDIPTLCCFTSEDSHYSIKSASAVLGIGADYCFNIPTDKNGKMIPEALEAKIIECKKEGLTPFFACCTAGSTVYGAFDPLERVANICERHKLWFHVDAAWGGGMLLSPEHRYKLAGIERANSVTWNPHKLMGALLQCSACLFRQDGLLFQCNQMSADYLFQQDKPYDVSFDTGDKAIQCGRHNDVFKLWLMWKSKGMEGYRQQINKLMDLANYFTRRIKETEGFELIIENPEFLNICFWYVPSKIRNLEPAEMRARLEKIAPKIKAGMMQRGTTMVGYQPDKQRPNFFRMIISNQAITREDLDFLIKEIVDIGESLE | not soluble
15 | SQDPYFKIANWTNEHDDFKKAEMRMDEKHRKKVDKVMKEWGDLETRYNEQKAKDPKGAEKFKSQMNARFQKTVSSLEEEHKRMRKEIEAVHEERVQAMLNEKKRDATHDYRQALATHVNKPNKHSVLQSLKAYIRAEEKDRMHTLNRYRHLLKADSKEAAAYKPTVIHRLRYIDLRINGTLAMLRDFPDLEKYVRPIAVTYWKDYRDEVSPDISVEDSELTPIIHDDEFSKNAKLDVKA | soluble
16 | MHLLPELASHHAVSIPELLVSRDERQARQHVWLKRHPVPLVSFTVVAPGPIKDSEVTRRIFNHGVTALRALAAKQGWQIQEQAALVSASGPEGMLSIAAPARDLKLATIELEHSHPLGRLWDIDVLTPEGEILSRRDYSLPPRRCLLCEQSAAVCARGKTHQLTDLLNRMEALLNDVDACNVN | not soluble
17 | MGSDKIHHHHHHAQTCGATYITEFQYDLKKRTNWCNLLRLDAYVPIGTKGILEFASIHVYKTRPERIINDLQTFSNIEEDNLPCAIAVLGYTRLVGNVTLFAGIRNLNEDYFTTPCMSLFTNSSCGIFPTLSANYPIANYPLAALCLDYKMTLGRFGIESSLYNGKGYNGWSKGKHPFTFNPRKDGVFSITEINYQTEYGKCFGGFSLHTNGDMPDVAGEWKTREREKKVSPKMTFAWWGYAERKLWSRVRQEVNLLVQYTRTSSVFSECRNYMGAGVTWIYVPGGQKRHEAGLFLSAAQFKSCNEVAGEVTYRYSFNRDTYIQPAIHLIKNGGGLHEVFLIRMGYILNGGRVR | not soluble
